Measurements: patent publication US7250269B2, “Composition for assaying glycoprotein” (Asahi Kasei Pharma Corporation, priority 2001, dated 2007)

Experiments:
[1] = FOD enzyme activity / substrate specificity on glycated lysine; assay type: biochemical
Procedure: (§1) 164 strains of mutant colonies obtained in Example 15 were cultured for 16 hours at 30° C. in 1.5 ml of a 3.7% BHI liquid medium (manufactured by DIFCO Co.) containing 50 μg/ml of ampicillin and 1 mM of IPTG. 1 ml of the culture broth was centrifuged (15,000 G for one minute at 4° C.) to collect cells. 200 μl of 10 mM Tris-HCl buffer solution (pH 8.0) was added to the collected cells. After crushing the cells using an ultrasonic breaker, the mixture was centrifuged (14,000 G for five minutes at 4° C.) to obtain a cell extract as a supernatant.
(§2) The glycated amino acid substrate specificity of FOD-mutated recombinant contained in the cell extract prepared in Example 16 was measured using the above-mentioned FOD enzyme activity measuring method.
(§3) Synthesis of an oligonucleotide having the base sequence of 1-27 in the sequence table Sequence ID No. 7 was consigned to an outside source (BEX Co., Ltd.). The oligonucleotide was subjected to the site-directed mutagenesis using the Mutan-K kit (manufactured by Takara Shuzo Co., Ltd.) according to the manual attached to the kit. The mutant gene obtained was incorporated again into the expression plasmid pTV119N, introduced into Escherichia coli host, and cultured at 30° C. for 16 hours in a 3.7% BHI liquid medium containing 50 μg/ml of ampicillin and 1 mM of IPTG to produce mutant FOD protein.

[2] = FOD enzyme activity / substrate specificity on glycated valine; assay type: biochemical
Procedure: as §1, §2, §3

[3] = Isoelectric point by focusing electrophoresis; assay type: physicochemical; conditions: 700 V for 40 hours at 4° C.; carrier ampholyte
Procedure: The isoelectric point determined by fractionating the enzyme after applying a constant voltage of 700 V for 40 hours at 4° C. in a focusing electrophoresis using carrier ampholyte, followed by measuring the enzyme activity of each fraction, was pH 4.3±0.2.

B1: Reactive 327th amino acid Tryptophan: mutant obtained by replacing the lysine with tryptophan, named FOD-W; plasmid pcmFOD3; Sequence ID No. 2 (protein)
chain: ASTLTKQSQILIVGGGTWGCSTALHLARRGYTNVTVLDVNRIPSPISAGHDVNKLAGRLSTADSKGDDEDSIWKALSYAAAQGWLHDPVFQPFCHNTGSVVAGSTPKSIKQLVEDEIGDDIDQYTPLNTAEDFRKTMPEGILTGNFPGWKGFYKPTGSGWVHARKAMKAAFEESERLGVKFITGSPEGKVESLIFEDGDVRGAKTADGKEHRADRTILSAGASAEFFLDFENQIQPTAWTLGHIQMTPEETKLYKNLPPLFNINQGFFMEPDEDLHQLKMCDEHPGYCNWVEKPGSKYPQSIPFAKHQVPTEAERRMKQFLKDIMPQLADRPLVHARICWCADTQDRMFLITYHPRHPSLVIASGDCGTGYWHITSIGKFISDCMEGTLEERFAKFWRWRPEKFTEFWGKDPLDRFGADDKIMDLPKSDVEGWTNIKNDI
modifications: sequence derived from Fusarium oxysporum IFO- 9722
- Substrate specificity ZFL [1]: 100%
- Reactivity ratio, glycated lysine / glycated valine ([1]; glycated lysine / glycated valine): 2980
- Substrate specificity FV [2]: 0%
- Isoelectric point [3]: 4.3±0.2
- Optimum temperature (maximum activity) (40 mM Tris-HCl buffer solution (pH 7.5)): 50 °C
- Optimum pH (maximum activity) (100 mM buffers pH 4.4-10.3): 7.5
